Measured values: article PMC3323041 (The Journal of Biological Chemistry, 2012)

B2: Mdv1(94-314) K215A/K216A, containing the NTE and coiled coil (domain or fragment, S. cerevisiae, UniProt P47025 94-314, looked up)
chain: DNKTCFRMLTYISDDLLNEIPTKEGLKSDADGKLLTEGGENENLRKNASKKETSLFQGFKSYLPIAELAIENTERLNYDTNGTSGTVGAKDVMSKTNERDEIHTELPNFQDSFLIPPGVETAAISSSYSPSALKSFSQTLVNSLEFLNIQKNSTLSEIRDIEVEVENLRQKKEKLLGKIANIEQNQLLLEDNLKQIDDRLDFLEEYGLEVIEANSDENAED

Experiments:
[1] = biological target: B2; assay: crystal structure
crystal structure = biological target: the molecule itself; assay: crystal structure

B1: Yeast Fis1(1-129), lacking the transmembrane segment (domain or fragment, S. cerevisiae, UniProt P40515 1-129, looked up)
chain: MTKVDFWPTLKDAYEPLYPQQLEILRQQVVSEGGPTATIQSRFNYAWGLIKSTDVNDERLGVKILTDIYKEAESRRRECLYYLTIGCYKLGEYSMAKRYVDTLFEHERNNKQVGALKSMVEDKIQKETL
Q: Does B1 bind [1]?
A: binds

Q: Does B2 bind (crystal structure)?
A: binds
